From US20210238298A1
One block for each binder: values may come before it.

Columns and labels:
[1] = target: CTLA-4 (BMS, Orencia) (human) (UniProt P16410); test: cell-based or functional assay
[2] = target: CD137 chimera 1550 (1407): human CD137 with mouse domains 1, 2A and 2B (aa 24-86), on FreeStyle 293-F cells (human; mouse) (UniProt P20334); test: flow cytometry, 293-F transfectants
UniProt P20334, sequence (P20334 other isoform, or with tags, fused parts or gaps mutant limits assumed): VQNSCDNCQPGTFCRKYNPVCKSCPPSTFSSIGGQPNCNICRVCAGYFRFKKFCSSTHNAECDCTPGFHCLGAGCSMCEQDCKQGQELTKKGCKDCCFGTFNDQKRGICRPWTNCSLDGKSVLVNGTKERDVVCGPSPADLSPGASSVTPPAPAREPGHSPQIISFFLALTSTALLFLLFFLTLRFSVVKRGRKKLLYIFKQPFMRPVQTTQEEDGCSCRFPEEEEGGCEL

CTLA-4 (BMS, Orencia) (human), sequence (P16410 38-152 limits assumed): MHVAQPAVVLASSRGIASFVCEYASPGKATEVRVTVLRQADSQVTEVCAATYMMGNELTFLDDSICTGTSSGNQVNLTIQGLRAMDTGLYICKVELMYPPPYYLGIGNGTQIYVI

Mean IL-2 level (pg/ml) induced at 1.5 nM (control) [1]: 1050 pg/mL
B1: 1756/1757 (isotype control antibody fused to the 1040 CTLA4 binding region) (protein, part only; not given: Isotype control antibody chains, part only)
chain: APLKIQAYFNETADLPCQFANSQNLSLSELVVFWQDQENLVLNEVYLGKERFDSVDSKYMGRTSFDSDSWTLRLHNLQIKDKGRYQCIIHHKKPTGMINIHQMNSELSVLA

relative binding (MFI sample/isotype control, normalised to full-length human CD137) [2]: 0.07
B2: anti-CD137 antibody 1204/1205 (antibody, IgG1, V domains shown)
VH: EVQLLESGGGLVQPGGSLRLSCAASGFTFSSYYMGWVRQAPGKGLEWVSGIGSYYGYTGYADSVKGRFTISRDNSKNTLYLQMNSLRAEDTAVYYCARAYYDYNYYYAYFDYWGQGTLVTVSS
VL: DIQMTQSPSSLSASVGDRVTITCRASQSISSYLNWYQQKPGKAPKLLIYAASSLQSGVPSRFSGSGSGTDFTLTISSLQPEDFATYYCQQSVPHYPFTFGQGTKLEIK
